First the molecules themselves.
B1: G53 (VHH)
VHH: HVQLVESGGGLVQAGGSLRLSCVASGFTYSTYTMGWFRQAPGKEREIVAAKNWSGARIYYTESVKGRFTISRDSGSNTMYLQMDSLKPEDTAVYYCAARLTWTDTTTPTTYPYWGQGTQVTVSS
B2: G49 (VHH)
VHH: EVQLVESGGGLVQAGGSLRLSCAASRSTFSINAAGWYRQAPGKQRELVAAISSGGSANYADSVKGRFIISRDNAKNTVYLQMNSLKPEDTAVYYCRVPYYRDDGYEYYSWGQGTQVTVSS
B3: G69 (VHH)
VHH: QVQLVESGGGLVQAGGSLRLSCVDSGRTFSSNTMGWFRQAPGKDRDFVAAINRSGVITNYADSVKGRFTISRDNAKNTVYLQLNSLKPEDTAVYYCAARAGGWPSQIPVEYDRWGQGTQVTVSS
B4: G39 (VHH)
VHH: HVQLVESGGELVQSGSSLRLSCAASGFDLDDYAIGWFRQAPGKEREGVSCTSTSDGPTSYLDSVKGRFTFSRDNAKNTLYLQMNSLKPEDTAVYYCAAISHIFAEDAPAMGLCWDQRSAFWYWGQGTQVTVSS
B5: G52 (VHH)
VHH: EVQLVESGGGLVQAGGSLRLSCAASGSTFSSKPIGWYRQAPGKGRDLVAAIGGGSSTFYVDSVKGRFTMSRDNAKNTVALQMNSLKPEDTAVYYCNEYLGPKVLPIGSWGQGTQVTVSS
B6: G70 (VHH)
VHH: QVQLVESGGGLVQAGGSLRLSCAASGATFSINAIGWYRQAPGKQRELVAVIKSGNSINYADSVKGRFTISRDHAKNTVYLQMNNLKPEDTAVYYCHADQPPETGWGTWNDLWGQGTQVTVSS
B7: G54 (VHH)
VHH: QVQLVESGGGLVKPGESLKLSCVASGETLSSYIMGWFRQAPGKEREFVAAVSWSGNQQDYADSVKGRFTISRDNAEKTVDLQMNSLNPEDTAVYYCAGDQIGFWSSRTQAHEYEYWGQGTQVTVSS
B8: G77 (VHH)
VHH: QVQLVESGGGLVQAGGSLRLSCTASRSTFRVNPAGWYRQAPGKERELVARITSGGSTNYADSVKGRFTISRDNAKNTVYLQMNSLKPEDTAVYYCNVPYYMEDGYEHDAWGQGTQVTVSS
B9: G68 (VHH)
VHH: EVQLVESGGGLVQAGGSLRLSCTASGSIFSVNVMDWYRQAPGKQREFVATITGSGATNYADSVKGRFTISRGSAKNTVYLQMNSLKPDDTAVYYCHNADYREDGYEYDNWGQGTQVTVSS
B10: G42 (VHH)
VHH: HVQLVESGGGFVQAGGSLRLSCEASGRTFNVYTMGWFRQAPGKEREFVGSISWNGGSTYYADSVKGRFTISRDNAKNTVYLQMNSLEPEDTAVYYCAARRQSHLRLDLSVIDAWGKGTQVTVSS
B11: G73 (VHH)
VHH: EVQLVESGGGLVQAGGSLRLSCAASGRTFSDDAMAWFRQAPGKEREFVAAISWHPENTFYADSVKGRFTISRDKTKNTEYLQMNSLKPEDTAVYYCAAGPRLEIGDYAQYKYWGQGTQVTVSS
B12: G45 (VHH)
VHH: EVQLVESGGGLVQPGGSLRLSCAASGSIFSINSMGWYRQAPGKQRELVAAITSGGSTNYANSVKGRFTISRNNARNTVWLQMNSLKPEDTAVYYCNADLNVVRGYSGDYHGSSDYWGQGTQVTVSS
B13: G37 (VHH)
VHH: EVQLVESGGGLVQAGDSLRLSCVASGDTFTSYTVGWFRQAPGKEQEFVAGISWSGRSTDYADFVKGRATISKDIAKVSLQMNALKPEDTAVYSCAAKKVDWSSDYVTNYDYDYRGRGTQVTVSS
B14: G41 (VHH)
VHH: DVQLVESGGGLVQAGGSLRLSCVASGHTVSNYAMAWFRQAPGKEREFVAGISWRASITYYRDSVKGRFTISRDNAKNTVYLQMSSLKPEDTAVYYCASDKTHYVSRGTSLVEYDYWGQGTQVTVSS
B15: G67 (VHH)
VHH: B14 VHH with D1H, S56T, I57L, Y95F, K100R, H102P
B16: G51 (VHH)
VHH: QVQLVESGGGLVQAGGSLKLSCAASGITFSINTIGWYRQAPGKQREFVAHITSDSTTYYADSVKARFTISRDSAKNTVHLQMNNLKPEDTAVYYCNVNPTWPYGGEVDYWGQGTQVTVSS
B17: G64 (VHH)
VHH: HVQLVESGGGLVQAGGSLRLSCKVSGTTFSNSAIGWYRQAPGNRRELVATINYGGSTNYADSGKGRFTISKDNAKNTVYLQMNSLKPEDTAVYYCKTTEWREDGYEYDVWGQGTQVTVSS
B18: G50 (VHH)
VHH: EVQLVESGGGLVQAGGSLRLSCAASGRTFSRYHMGWFRQAPGKERDVVAAISWSGDSTYYADSVKGRFTISKDNAKNTVYLQMDSLKPEDTAVYYCATLSGWDGDTIFPAGSWGQGTQVTVSS
B19: G44 (VHH)
VHH: DVQLVESGGGLVQAGGSLRLSCVASGPIFSFSTGGWYRQAPGKQRELVAALTGGGNTNYADSVKGRFTISRDNAKNTVYLQMNLLKPEDTAVYYCQVMYYSGYDGYESTSWGQGTQVTVSS
B20: G30 (VHH)
VHH: QVQLVESGGGLVQAGGSLRLSCAASGRTINNYDMGWFRQAPGKEREFVAAITWSGRDTNYADSVKGRFTVSRDDAKNTVYLQMNTLSPEDTAVYYCASARIQFYRLVAATRTDYSYWGQGTQVTVSS
B21: G43 (VHH)
VHH: EVQLVESGGGLVQAGGSLRLSCATSGRTSSTYAMGWFRQRPGKEREFVATIHWGVGSTIYADSVKGRFTLSRDNAQNTVYLQMNSLKPEDTAVYYCAASTYRIGSYDVSTSQGYNYWGQGTQVTVSS
B22: G65 (VHH)
VHH: B21 VHH with E1Q, S29F, M34L, G54S, V55D, S57R, I59L, V93I, T100I, N115D
B23: G66 (VHH)
VHH: B21 VHH with E1Q, S29F, G54S, V55D, S57R, I59L, A61T, S99A
B24: G58 (VHH)
VHH: EVQLVESGGGLVQAGGSLRLSCAGSGDTFSRYTLGWFRQAPGKEREFVAGISWSGGSTSYANSVKGRFTISRDNAKNTMYLQMNSLKPEDTAVYTCAAPGLPGTVVVGASDFYVYWGQGTQVTVSS
B25: H33 (VHH)
VHH: HVQLVESGGGLVQAGGSLRLSCAASGRTLSSYDMGWFRQPPGKEREFVAAITRHDFNTFYRDSVKGRFTISRDNAKNTVYLQMNSLKSEDTAVYFCAARLDPIFASNSEYAPLYDYWGQGTQVTVSS
B26: H34 (VHH)
VHH: B25 VHH with H1Q, Q39K, P40A, F56Y, F59Y, E109A, A111S, P112N
B27: H31 (VHH)
VHH: QVQLVESGGGLVQPGGSLRLSCTPSGFRLEDYPIAWFRQAPGKEREGLSCITSGDGRTYYEESVKGRFTISRDNAQNKVYLQMNKLTPEDTAVYHCATVPSDNLCGYLHRRPFASWGQGTQVTVSS
B28: H10 (VHH)
VHH: DVQLVESGGGLVQAGGSLRLSCRASGLPFGPYTMGWFRQTPGQEREFVAAITWSSMNTNYADSVKGRFTISRDSAKNTVYLQMNTLKPDDTAVYYCAADDRAVPMLGDFEDYIYWGQGTQVTVSS
B29: H32 (VHH)
VHH: HVQLVESGGGLVQAGGSLRLSCAASDTIDNYARAWFRQAPGKEREFVAAITWTFGTPYYTDSVKGRFTISRDDAKNTVYLQMNSLKPEDTAVYYCAASLYLPVRTASGGYRLDTDRPQYWGQGTQVTVSS
B30: H13 (VHH)
VHH: HVQLVESGGGLVQAGGSLRLSCAASGRTFSTYHMGWFRQAPGKAREFVAAITGSGGITYYADSVKGRFTISRDNAKNTVYLQMNSLKPEDTAVYYCAADTRAYGLVPSTTSSRYNYWGQGTQVTVSS
B31: H37 (VHH)
VHH: QVQLVESGGGLVQAGGSLRLSCAASGLTFSNYALGWFRRAPGKERDFVAAISYSGGSTDYADSVKGRFTISRDNAKNTVYLQMNSLKPEDTAVYYCAAAYLGWGTARTAYEYWGQGTQVTVSS
B32: H23 (VHH)
VHH: DVQLVESGGGLVQAGGSLTLSCAASGRTFSSSTMGWFRRAPGKEREFVAAISGSARTTDYADSVKGRFTISRDNAKNTVYLQMISLKPEDTAIYYCARKRVVDVTTSNYELRYDYWGQGTQVTVSS

We go through 32 molecules from patent US20230176070A1.

Changes are numbered by the printed parent chain.

glutathione S-transferase [GST: P08515], sequence (P08515 whole entry): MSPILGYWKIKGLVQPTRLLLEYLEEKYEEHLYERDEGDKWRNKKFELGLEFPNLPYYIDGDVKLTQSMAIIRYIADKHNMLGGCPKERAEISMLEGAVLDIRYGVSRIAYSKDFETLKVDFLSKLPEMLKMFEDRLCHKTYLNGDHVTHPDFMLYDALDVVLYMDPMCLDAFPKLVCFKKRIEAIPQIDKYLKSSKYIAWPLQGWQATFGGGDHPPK
human serum albumin (human), sequence (P02768 25-609 limits assumed): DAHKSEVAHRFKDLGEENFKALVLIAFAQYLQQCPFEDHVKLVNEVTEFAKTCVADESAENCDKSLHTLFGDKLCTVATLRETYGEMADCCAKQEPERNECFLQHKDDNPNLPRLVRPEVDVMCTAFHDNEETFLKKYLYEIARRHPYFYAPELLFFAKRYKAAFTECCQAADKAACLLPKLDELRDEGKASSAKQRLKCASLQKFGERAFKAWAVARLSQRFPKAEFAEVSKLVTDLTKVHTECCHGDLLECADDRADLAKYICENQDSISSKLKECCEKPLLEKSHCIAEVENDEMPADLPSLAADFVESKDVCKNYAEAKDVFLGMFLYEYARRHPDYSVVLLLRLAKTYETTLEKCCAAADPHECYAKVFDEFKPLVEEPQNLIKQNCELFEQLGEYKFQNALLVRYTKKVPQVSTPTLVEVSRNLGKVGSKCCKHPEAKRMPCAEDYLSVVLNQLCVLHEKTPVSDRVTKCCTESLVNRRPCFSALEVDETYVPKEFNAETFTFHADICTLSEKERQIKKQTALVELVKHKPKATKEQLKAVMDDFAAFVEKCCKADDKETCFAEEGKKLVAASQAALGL

The first assay addresses glutathione S-transferase [GST: P08515]. In words: indirect ELISA, GST coated.
Take B1: the ELISA affinity (LogIC50 (oD450nm)) was 5.37.
B2: the ELISA affinity (LogIC50 (oD450nm)) was determined as 5.54.
B3 had an ELISA affinity (LogIC50 (oD450nm)) of 3.69.
The same measure, in the same setting: then B4, with 1.65; and B5, with 1; and B6, with 1.75.
On to B7, for which the ELISA affinity (LogIC50 (oD450nm)) stood at 1.54.
For B8, the ELISA affinity (LogIC50 (oD450nm)) is 6.01.
Same read-out and setting: as for B9, the figure is 1.07.
Regarding B10, the ELISA affinity (LogIC50 (oD450nm)) came to 2.63.
As for B11, the ELISA affinity (LogIC50 (oD450nm)) came to 0.955.
Regarding B12, the ELISA affinity (LogIC50 (oD450nm)) is 3.17.
The same measure, in the same setting: as for B13, the figure is 1.78; as for B14, 1.02; as for B15, 3.6.
Consider B16, for which the ELISA affinity (LogIC50 (oD450nm)) was found to be 4.45.
On the same count and under the same terms, then B17, with 5.68; and B18, with 1.09; and B19, with 3.06.
On the same count and under the same terms, then B20, with 4.86.
B21 gave an ELISA affinity (LogIC50 (oD450nm)) of 4.32.
For the molecule B22, the ELISA affinity (LogIC50 (oD450nm)) was found to be 3.97.
Same read-out and setting: as for B23, the figure is 4.29; as for B24, 1.54.

Another assay addresses human serum albumin (human) (UniProt P02768). In words: indirect ELISA, HSA coated. (In general: In an ELISA, binding on a coated surface is turned into a signal by an enzyme label.)
Take B25: the ELISA affinity (LogIC50 (oD450nm)) came to 5.03.
As for B26, the ELISA affinity (LogIC50 (oD450nm)) worked out at 5.07.
The molecule B27 returned an ELISA affinity (LogIC50 (oD450nm)) of 1.07.
Turning to B28, the ELISA affinity (LogIC50 (oD450nm)) was 1.46.
On to B29, for which the ELISA affinity (LogIC50 (oD450nm)) is 5.33.
Consider B30, for which the ELISA affinity (LogIC50 (oD450nm)) was 1.96.
Regarding B31, the ELISA affinity (LogIC50 (oD450nm)) turned out to be 1.49.
The molecule B32 yielded an ELISA affinity (LogIC50 (oD450nm)) of 1.62.
